Assay [1] deals with vWF A1-domain (UniProt P04275). The assay is described as follows: SPR (Biacore 3000), vWF A1-domain on CM5 chip, parallel line analysis. A general note: SPR reads the build-up and loss of mass on a sensor chip optically.
In assay [2] the target is vWF A1-domain (UniProt P04275). The assay is described as follows: SPR (Biacore 3000), vWF A1-domain on CM5 chip, parallel line analysis; second of two independent analyses.
For assay [3], the target named is vWF A1-domain (UniProt P04275). Description: SPR (Biacore 3000), vWF A1-domain on CM5 chip, parallel line analysis; first of two independent analyses.

Several values for one entry are separate records, joined by “and”; a condition that tells them apart may be missing. Identical values can stand only once.

B1: Nanobody ALX0081sv1 (vWF0002) (VHH)
chain: DVQLVESGGGLVQPGGSLRLSCAASGRTFSYNPMGWFRQAPGKGRELVAAISRTGGSTYYPESVEGRFTISRDNAKRTVYLQMNSLRAEDTAVYYCAAAGVRAEQGRVRTLPSEYTFWGQGTQVTVSSAAAEVQLVESGGGLVQPGGSLRLSCAASGRTFSYNPMGWFRQAPGKGRELVAAISRTGGSTYYPESVEGRFTISRDNAKRTVYLQMNSLRAEDTAVYYCAAAGVRAEQGRVRTLPSEYTFWGQGTQVTVSS
As to B1, the relative potency versus reference (non lyophilised, stored at -70 C) was 94.8% and 117% and 93.3% with vWF A1-domain [1]; 96.1% in the assay with vWF A1-domain [2]; 94.6% with vWF A1-domain [3].
